Data from patent US20230093708A1, “PROTEIN NANOPARTICLE DESIGN AND APPLICATION” (Duke University, priority 2020, published 2023).

B1: RLP40-ELPV80: RLP-ELP block co-polypeptide with Val guest residue in the corona (protein)
chain: QYPSDGRGQYPSDGRGQYPSDGRGQYPSDGRGQYPSDGRGQYPSDGRGQYPSDGRGQYPSDGRGQYPSDGRGQYPSDGRGQYPSDGRGQYPSDGRGQYPSDGRGQYPSDGRGQYPSDGRGQYPSDGRGQYPSDGRGQYPSDGRGQYPSDGRGQYPSDGRGQYPSDGRGQYPSDGRGQYPSDGRGQYPSDGRGQYPSDGRGQYPSDGRGQYPSDGRGQYPSDGRGQYPSDGRGQYPSDGRGQYPSDGRGQYPSDGRGQYPSDGRGQYPSDGRGQYPSDGRGQYPSDGRGQYPSDGRGQYPSDGRGQYPSDGRGQYPSDGRGGVGVPGVGVPGVGVPGVGVPGVGVPGVGVPGVGVPGVGVPGVGVPGVGVPGVGVPGVGVPGVGVPGVGVPGVGVPGVGVPGVGVPGVGVPGVGVPGVGVPGVGVPGVGVPGVGVPGVGVPGVGVPGVGVPGVGVPGVGVPGVGVPGVGVPGVGVPGVGVPGVGVPGVGVPGVGVPGVGVPGVGVPGVGVPGVGVPGVGVPGVGVPGVGVPGVGVPGVGVPGVGVPGVGVPGVGVPGVGVPGVGVPGVGVPGVGVPGVGVPGVGVPGVGVPGVGVPGVGVPGVGVPGVGVPGVGVPGVGVPGVGVPGVGVPGVGVPGVGVPGVGVPGVGVPGVGVPGVGVPGVGVPGVGVPGVGVPGVGVPGVGVPGVGVPGVGVPGVGVPGVGVPGVGVPGVGVPGVGVP
B2: RLP80-ELP160: RLP-ELP block co-polypeptide, 80 core and 160 corona repeats (protein)
chain: QYPSDGRGQYPSDGRGQYPSDGRGQYPSDGRGQYPSDGRGQYPSDGRGQYPSDGRGQYPSDGRGQYPSDGRGQYPSDGRGQYPSDGRGQYPSDGRGQYPSDGRGQYPSDGRGQYPSDGRGQYPSDGRGQYPSDGRGQYPSDGRGQYPSDGRGQYPSDGRGQYPSDGRGQYPSDGRGQYPSDGRGQYPSDGRGQYPSDGRGQYPSDGRGQYPSDGRGQYPSDGRGQYPSDGRGQYPSDGRGQYPSDGRGQYPSDGRGQYPSDGRGQYPSDGRGQYPSDGRGQYPSDGRGQYPSDGRGQYPSDGRGQYPSDGRGQYPSDGRGQYPSDGRGQYPSDGRGQYPSDGRGQYPSDGRGQYPSDGRGQYPSDGRGQYPSDGRGQYPSDGRGQYPSDGRGQYPSDGRGQYPSDGRGQYPSDGRGQYPSDGRGQYPSDGRGQYPSDGRGQYPSDGRGQYPSDGRGQYPSDGRGQYPSDGRGQYPSDGRGQYPSDGRGQYPSDGRGQYPSDGRGQYPSDGRGQYPSDGRGQYPSDGRGQYPSDGRGQYPSDGRGQYPSDGRGQYPSDGRGQYPSDGRGQYPSDGRGQYPSDGRGQYPSDGRGQYPSDGRGQYPSDGRGQYPSDGRGQYPSDGRGQYPSDGRGQYPSDGRGGAGVPGGGVPGAGVPGGGVPGAGVPGGGVPGAGVPGGGVPGAGVPGGGVPGAGVPGGGVPGAGVPGGGVPGAGVPGGGVPGAGVPGGGVPGAGVPGGGVPGAGVPGGGVPGAGVPGGGVPGAGVPGGGVPGAGVPGGGVPGAGVPGGGVPGAGVPGGGVPGAGVPGGGVPGAGVPGGGVPGAGVPGGGVPGAGVPGGGVPGAGVPGGGVPGAGVPGGGVPGAGVPGGGVPGAGVPGGGVPGAGVPGGGVPGAGVPGGGVPGAGVPGGGVPGAGVPGGGVPGAGVPGGGVPGAGVPGGGVPGAGVPGGGVPGAGVPGGGVPGAGVPGGGVPGAGVPGGGVPGAGVPGGGVPGAGVPGGGVPGAGVPGGGVPGAGVPGGGVPGAGVPGGGVPGAGVPGGGVPGAGVPGGGVPGAGVPGGGVPGAGVPGGGVPGAGVPGGGVPGAGVPGGGVPGAGVPGGGVPGAGVPGGGVPGAGVPGGGVPGAGVPGGGVPGAGVPGGGVPGAGVPGGGVPGAGVPGGGVPGAGVPGGGVPGAGVPGGGVPGAGVPGGGVPGAGVPGGGVPGAGVPGGGVPGAGVPGGGVPGAGVPGGGVPGAGVPGGGVPGAGVPGGGVPGAGVPGGGVPGAGVPGGGVPGAGVPGGGVPGAGVPGGGVPGAGVPGGGVPGAGVPGGGVPGAGVPGGGVPGAGVPGGGVPGAGVPGGGVPGAGVPGGGVPGAGVPGGGVPGAGVPGGGVPGAGVPGGGVPGAGVPGGGVPGAGVPGGGVPGAGVPGGGVPGAGVPGGGVPGAGVPGGGVPGAGVPGGGVP
B3: RLP40-ELP40: RLP-ELP block co-polypeptide, 40 core and 40 corona repeats (protein)
chain: QYPSDGRGQYPSDGRGQYPSDGRGQYPSDGRGQYPSDGRGQYPSDGRGQYPSDGRGQYPSDGRGQYPSDGRGQYPSDGRGQYPSDGRGQYPSDGRGQYPSDGRGQYPSDGRGQYPSDGRGQYPSDGRGQYPSDGRGQYPSDGRGQYPSDGRGQYPSDGRGQYPSDGRGQYPSDGRGQYPSDGRGQYPSDGRGQYPSDGRGQYPSDGRGQYPSDGRGQYPSDGRGQYPSDGRGQYPSDGRGQYPSDGRGQYPSDGRGQYPSDGRGQYPSDGRGQYPSDGRGQYPSDGRGQYPSDGRGQYPSDGRGQYPSDGRGQYPSDGRGGAGVPGGGVPGAGVPGGGVPGAGVPGGGVPGAGVPGGGVPGAGVPGGGVPGAGVPGGGVPGAGVPGGGVPGAGVPGGGVPGAGVPGGGVPGAGVPGGGVPGAGVPGGGVPGAGVPGGGVPGAGVPGGGVPGAGVPGGGVPGAGVPGGGVPGAGVPGGGVPGAGVPGGGVPGAGVPGGGVPGAGVPGGGVPGAGVPGGGVP
B4: RLP40-ELP160: RLP-ELP block co-polypeptide, 40 core and 160 corona repeats (protein)
chain: QYPSDGRGQYPSDGRGQYPSDGRGQYPSDGRGQYPSDGRGQYPSDGRGQYPSDGRGQYPSDGRGQYPSDGRGQYPSDGRGQYPSDGRGQYPSDGRGQYPSDGRGQYPSDGRGQYPSDGRGQYPSDGRGQYPSDGRGQYPSDGRGQYPSDGRGQYPSDGRGQYPSDGRGQYPSDGRGQYPSDGRGQYPSDGRGQYPSDGRGQYPSDGRGQYPSDGRGQYPSDGRGQYPSDGRGQYPSDGRGQYPSDGRGQYPSDGRGQYPSDGRGQYPSDGRGQYPSDGRGQYPSDGRGQYPSDGRGQYPSDGRGQYPSDGRGQYPSDGRGGAGVPGGGVPGAGVPGGGVPGAGVPGGGVPGAGVPGGGVPGAGVPGGGVPGAGVPGGGVPGAGVPGGGVPGAGVPGGGVPGAGVPGGGVPGAGVPGGGVPGAGVPGGGVPGAGVPGGGVPGAGVPGGGVPGAGVPGGGVPGAGVPGGGVPGAGVPGGGVPGAGVPGGGVPGAGVPGGGVPGAGVPGGGVPGAGVPGGGVPGAGVPGGGVPGAGVPGGGVPGAGVPGGGVPGAGVPGGGVPGAGVPGGGVPGAGVPGGGVPGAGVPGGGVPGAGVPGGGVPGAGVPGGGVPGAGVPGGGVPGAGVPGGGVPGAGVPGGGVPGAGVPGGGVPGAGVPGGGVPGAGVPGGGVPGAGVPGGGVPGAGVPGGGVPGAGVPGGGVPGAGVPGGGVPGAGVPGGGVPGAGVPGGGVPGAGVPGGGVPGAGVPGGGVPGAGVPGGGVPGAGVPGGGVPGAGVPGGGVPGAGVPGGGVPGAGVPGGGVPGAGVPGGGVPGAGVPGGGVPGAGVPGGGVPGAGVPGGGVPGAGVPGGGVPGAGVPGGGVPGAGVPGGGVPGAGVPGGGVPGAGVPGGGVPGAGVPGGGVPGAGVPGGGVPGAGVPGGGVPGAGVPGGGVPGAGVPGGGVPGAGVPGGGVPGAGVPGGGVPGAGVPGGGVPGAGVPGGGVPGAGVPGGGVPGAGVPGGGVPGAGVPGGGVPGAGVPGGGVPGAGVPGGGVPGAGVPGGGVPGAGVPGGGVPGAGVPGGGVPGAGVPGGGVPGAGVPGGGVPGAGVPGGGVPGAGVPGGGVPGAGVPGGGVPGAGVPGGGVP

Legend:
[1] = Static and dynamic light scattering (SLS/DLS) of block co-polypeptides; assay type: physicochemical; conditions: for Nagg / Rg(nm) / Rh (nm): 10 μM in PBS, 15 °C; for ρ: shape factor Rg/Rh
Description: Key parameters of interest are the hydrophilicity of the corona-forming block, the hydrophilicity of the core block, the overall length of the co-polypeptide and the ratio of the two blocks. Parameters of evaluation are the size, morphology, stability, and thermoresponsive behavior. All measurements were made in 140 mM NaCl, 10 mM phosphate buffer, 3 mM KCl, pH 7.4 unless otherwise specified. Size was evaluated by the hydrodynamic radios (Rh) and radius of gyration (Rg) by dynamic light scattering (DLS) and static light scattering (SLS) respectively. Rg and Rh can be combined to yield the shape factor ρ=Rg/Rh, which provides a rough indication of the morphology of the scatterer. […] For an elongated scatterer, the shape factor depends upon the aspect ratio. A combination of temperature dependent turbidity and DLS was utilized to determine the phase behavior of the block co-polypeptides. Cryogenic transmission electron microscopy (Cryo-TEM) was utilized to evaluate the morphology and provide crucial insight into the hydration of the core/corona chains. Stability of the assembled nanostructure was determined by a shift in the I1/I3 fluorescent bands of pyrene as described previously.
Static and dynamic light scattering measurements (SLS/DLS) were performed using an ALV/CGS-3 goniometer system (Langen, Germany). Samples for the ALV/CGS-3 goniometer system were prepared at a concentration of 10 μM in PBS and filtered through 0.45 μm Millex-GV filters into a 10 mm disposable borosilicate glass tube (Fischer). Simultaneous SLS and DLS measurements were obtained at 15° C. of the ELP for angles between 30°-150° at 5° increments, with each angle consisting of 3 runs for 15 s. SLS experiments were only conducted for self-assembling block co-polypeptides, since the molecular weight of a single block co-polypeptide chain is already known, and the Rg of a single chain is likely near or below the detection limit of the SLS instrument. The differential refractive index (dn/dc) was determined by measuring the refractive index at different concentrations using an Abbemat 500 refractometer (Anton Paar, Graz, Austria). DLS data were analyzed by fitting the autocorrelation function with a cumulant fit, using the built-in ALV software. Hydrodynamic radius (Rh) was plotted against angle and extrapolated to zero. SLS data were analyzed by partial Zimm plots using ALVSTAT software in order to determine the Rg and molecular weight (MW).

[2] = Cryo-TEM micelle core size, inter-core spacing and aspect ratio; assay type: physicochemical; conditions: for Spacing (nm): inter-core spacing; for Spacing (nm) / Core radius (nm): mean ± standard deviation
Description: Using the data from FIG. 18, particularly the longest straight line of an individual particle and a corresponding perpendicular measurement were made to describe the aspect ratio of particles observed.
Cryo-TEM experiments were performed at Duke University's Shared Materials Instrumentation Facility (Durham, N.C.). Lacey holey carbon grids (Ted Pella, Redding, Calif.) were glow discharged in a PELCO EasiGlow Cleaning System (Ted Pella, Redding, Calif.). A 3 μL drop (10 μM RLPn-ELP80) was deposited onto the grid, blotted for 3 s with an offset of −3 mm, and vitrified in liquid ethane using the Vitrobot Mark III (FEI, Eindhoven, Netherlands). Prior to vitrification, the sample chamber was maintained at 15° C. and 100% relative humidity to prevent sample evaporation. Grids were transferred to a Gatan 626 cryoholder (Gatan, Pleasanton, Calif.) and imaged with a FEI Tecnai G2 Twin TEM (FEI, Eindhoven, Netherlands), operating at 80 keV. Feature sizes and spacing distances were measured in ImageJ by manual measurement of at least 25 particles.

Molecule	shape factor / form factor (Rg/Rh) [1]	Nagg ([1]; Table 5)	Rg(nm) ([1]; Table 5)	Rh (nm) ([1]; Table 5)	ρ ([1]; Table 5)	Spacing (nm) ([2]; Table 6)	Core radius (nm) ([2]; Table 6)	hydrodynamic radius (Rh) [1]	radius of gyration (Rg) [1]	Nagg ([1]; Table 3)	Rg(nm) ([1]; Table 3)	Rh (nm) ([1]; Table 3)	ρ ([1]; Table 3)	Spacing (nm) ([2]; Table 4)	Core radius (nm) ([2]; Table 4)	core radius (cryo-TEM) [2]	spacing between particle cores (cryo-TEM) [2]
B1	> 1	213	33.1 nm	31.7 nm	1.04	19.4 ± 4.4 nm	14.5 ± 3.6 nm										
B2	0.8							93.3 nm	78.2 nm	1728	78.2 nm	93.5 nm	0.84	59.0 ± 13.2 nm	29.3 ± 4.5 nm		
B3	greater than 1							52.6 nm	56.2 nm	91	56.2 nm	52.6 nm	1.13	19.5 ± 4.3 nm	11.8 ± 1.6 nm	11.8 nm	19.5 nm
B4	0.8							92.3 nm	70.8 nm	246	70.8 nm	92.3 nm	0.8	22.3 ± 5.2 nm	11.0 ± 1.6 nm	11.0 nm	22.3 nm
